What was measured:
KPT-185-conjugated XPO1 = KPT-185-conjugated XPO1 (human, UniProt O14980 1-1071, Cys528 covalently conjugated to KPT-185); experiment: cryo-EM structure
KPT-127-conjugated XPO1 = KPT-127-conjugated XPO1 (human, UniProt O14980 1-1071, Cys528 covalently conjugated to KPT-127); experiment: cryo-EM structure
[1] = target: KPT-UTSW1-conjugated XPO1 (human, UniProt O14980 1-1071); experiment: cryo-EM structure
[2] = target: T1, selinexor-conjugated XPO1 (human, UniProt O14980 1-1071, Cys528 covalently conjugated to selinexor (KPT-330)); experiment: cryo-EM structure
T1 sequence (O14980 whole entry): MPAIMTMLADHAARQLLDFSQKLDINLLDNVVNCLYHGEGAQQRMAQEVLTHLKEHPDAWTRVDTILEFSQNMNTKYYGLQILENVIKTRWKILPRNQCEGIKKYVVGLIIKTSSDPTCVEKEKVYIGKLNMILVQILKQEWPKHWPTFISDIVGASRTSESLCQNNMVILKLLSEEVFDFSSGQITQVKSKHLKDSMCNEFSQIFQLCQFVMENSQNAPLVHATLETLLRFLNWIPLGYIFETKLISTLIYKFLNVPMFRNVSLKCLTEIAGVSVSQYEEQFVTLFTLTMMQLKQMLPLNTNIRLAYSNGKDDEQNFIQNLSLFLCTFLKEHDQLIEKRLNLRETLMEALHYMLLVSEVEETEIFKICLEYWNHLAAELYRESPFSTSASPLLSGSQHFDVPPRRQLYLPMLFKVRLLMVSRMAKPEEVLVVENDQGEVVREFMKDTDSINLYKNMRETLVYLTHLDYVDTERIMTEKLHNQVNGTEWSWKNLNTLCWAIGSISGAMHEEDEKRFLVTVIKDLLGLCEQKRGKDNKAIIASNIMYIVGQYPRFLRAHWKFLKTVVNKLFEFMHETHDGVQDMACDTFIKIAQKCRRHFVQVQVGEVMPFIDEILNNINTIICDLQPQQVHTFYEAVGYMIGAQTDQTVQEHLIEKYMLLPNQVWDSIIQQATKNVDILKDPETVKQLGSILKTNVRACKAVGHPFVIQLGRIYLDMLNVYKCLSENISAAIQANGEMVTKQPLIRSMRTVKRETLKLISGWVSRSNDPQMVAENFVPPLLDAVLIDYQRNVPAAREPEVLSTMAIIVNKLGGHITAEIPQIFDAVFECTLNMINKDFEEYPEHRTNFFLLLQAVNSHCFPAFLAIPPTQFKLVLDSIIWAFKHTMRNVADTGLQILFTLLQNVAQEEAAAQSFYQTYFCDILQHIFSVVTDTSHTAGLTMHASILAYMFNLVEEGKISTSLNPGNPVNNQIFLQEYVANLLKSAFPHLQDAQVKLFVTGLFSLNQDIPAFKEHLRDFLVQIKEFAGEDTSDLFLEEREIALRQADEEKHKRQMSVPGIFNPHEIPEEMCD

[3] = target: T1, selinexor-conjugated XPO1; experiment: ITC
[4] = target: exportin 1 (XPO1), unliganded (human, UniProt O14980 1-1071); experiment: ITC
exportin 1 (XPO1), unliganded, sequence (O14980 whole entry): as above

KPT-127-conjugated XPO1, sequence (O14980 whole entry): as above
KPT-185-conjugated XPO1, sequence (O14980 whole entry): as above
KPT-UTSW1-conjugated XPO1, sequence (O14980 whole entry): as above

| Binder | binding result [2] | Kd [3] [nM] | other results |
| --- | --- | --- | --- |
| ASB8^ΔN16 (domain or fragment) SLSERLIRTIAAIRSFPHDNVEDLIRGGADVNCTHGTLKPLHCACMVSDADCVELLLEKGAEVNALDGYNRTALHYAAEKDEACVEVLLEYGANPNALDGNRDTPLHWAAFKNNAECVRALLESGASVNALDYNNDTPLSWAAMKGNLESVSILLDYGAEVRVINLIGQTPISRLVALLVRGLGTEKEDSCFELLHRAVGHFELRKNGTMPREVARDPQLCEKLTVLCSAPGTLKTLARYAVRRSLGLQYLPDAVKGLPLPASLKEYLLLLE | binds | – | binding result (KPT-185-conjugated XPO1): binds; binding result (KPT-127-conjugated XPO1): binds; binding result [1]: binds |
| ASB8^ΔN16•ELOB/C (complex) chain 1: SLSERLIRTIAAIRSFPHDNVEDLIRGGADVNCTHGTLKPLHCACMVSDADCVELLLEKGAEVNALDGYNRTALHYAAEKDEACVEVLLEYGANPNALDGNRDTPLHWAAFKNNAECVRALLESGASVNALDYNNDTPLSWAAMKGNLESVSILLDYGAEVRVINLIGQTPISRLVALLVRGLGTEKEDSCFELLHRAVGHFELRKNGTMPREVARDPQLCEKLTVLCSAPGTLKTLARYAVRRSLGLQYLPDAVKGLPLPASLKEYLLLLE chain 2: […] chain 3: […] | – | 29 | Kd [4]: 11000 nM |

Continued, in another order:

| binding result [2] | Kd [3] [nM] | Binder | other results |
| --- | --- | --- | --- |
| binds | – | ASB8^ΔN16/R197A (domain or fragment) SLSERLIRTIAAIRSFPHDNVEDLIRGGADVNCTHGTLKPLHCACMVSDADCVELLLEKGAEVNALDGYNRTALHYAAEKDEACVEVLLEYGANPNALDGNRDTPLHWAAFKNNAECVRALLESGASVNALDYNNDTPLSWAAMKGNLESVSILLDYGAEVRVINLIGQTPISRLVALLVAGLGTEKEDSCFELLHRAVGHFELRKNGTMPREVARDPQLCEKLTVLCSAPGTLKTLARYAVRRSLGLQYLPDAVKGLPLPASLKEYLLLLE | – |
| – | 58 | ASB8^ΔN16/R197A•ELOB/C (complex) chain 1: SLSERLIRTIAAIRSFPHDNVEDLIRGGADVNCTHGTLKPLHCACMVSDADCVELLLEKGAEVNALDGYNRTALHYAAEKDEACVEVLLEYGANPNALDGNRDTPLHWAAFKNNAECVRALLESGASVNALDYNNDTPLSWAAMKGNLESVSILLDYGAEVRVINLIGQTPISRLVALLVAGLGTEKEDSCFELLHRAVGHFELRKNGTMPREVARDPQLCEKLTVLCSAPGTLKTLARYAVRRSLGLQYLPDAVKGLPLPASLKEYLLLLE chain 2: […] chain 3: […] | – |
